The source of these data is article PMC5683654, “Interaction between the flagellar pocket collar and the hook complex via a novel microtubule-binding protein in Trypanosoma brucei” (PLoS Pathogens, 2017).

For assay [1], the target named is BILBO1-Edge-Mut (K60A/K62A), bacterially expressed BILBO1-NTD’ (Trypanosoma brucei). The assay is described as follows: ITC; 25°C, 20 mM Tris-HCl pH 8.0, 50 mM NaCl; 50 μM BILBO1-NTD’ in the cell titrated with 600 μM FPC4-B1BD; one-site binding model.
Assay [2] addresses taxol-stabilised microtubules (polymerised tubulin). The assay is described as follows: co-sedimentation; microtubule binding assay; increasing concentrations of FPC4 fragment with 7.2 μM polymerised tubulin in PEMD, 1 h at 22°C, 16,100 g; pellets and supernatants on SDS-PAGE.
Another assay addresses T1, FPC4-B1BD (aa 357–440) (Trypanosoma brucei, UniProt Q57YN8 357-440).
T1 chain: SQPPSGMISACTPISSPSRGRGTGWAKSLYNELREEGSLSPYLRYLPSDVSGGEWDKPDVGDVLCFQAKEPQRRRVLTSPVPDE
In words: ITC.

The target of assay [3] is T2, BILBO1-NTD’ (aa 1–120) (Trypanosoma brucei, UniProt Q382W6 1-120).
T2 construct: BILBO1 of Trypanosoma brucei, Tb927.11.12150, aa 1-120, cloned into pET-15b; also called TbBILBO1-NTD’; 6His-BILBO1-NTD’; source: E. coli, purified (Ni-HiTrap, tag removed with thrombin, Superdex-200); not shown: His6, N-terminal, cleaved
T2 sequence (looked up): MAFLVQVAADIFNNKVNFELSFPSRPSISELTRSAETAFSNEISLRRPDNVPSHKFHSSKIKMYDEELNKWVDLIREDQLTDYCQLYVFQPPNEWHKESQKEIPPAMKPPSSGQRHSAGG
In words: ITC; 25°C, 20 mM Tris-HCl pH 8.0, 50 mM NaCl; 50 μM BILBO1-NTD’ in the cell titrated with 600 μM FPC4-B1BD; one-site binding model. To be noted: both partners purified.

In assay [4] the target is T2, BILBO1-NTD’ (aa 1–120). The assay is described as follows: SEC-MALS; static light scattering on Superdex 200 10/300 GL; purified proteins mixed at molar ratio ~1:2, total 2 mg/ml, 30 min at room temperature. As to conditions: both partners purified.

As for “FPC4-B1BD (aa 357–440) (from UniProt Q57YN8 357-440) (domain or fragment)”, the dissociation constant (Kd) in assay [1] stood at 18 µM. Consider FPC4-1-260-6His (domain or fragment), for which the saturating concentration in assay [2] was 5.6 µM.

B1: BILBO1-NTD’ (aa 1–120) (domain or fragment)
chain: T2 sequence (looked up)
Molecule B1 showed a dissociation constant Kd with FPC4-B1BD (aa 357–440) of 5.4 µM.

B2: FPC4-B1BD (aa 357–440) (domain or fragment, Trypanosoma brucei, UniProt Q57YN8 357-440, looked up)
chain: T1 chain
notes: FPC4 of Trypanosoma brucei, Tb927.8.6370, aa 357-440, cloned into the custom vector MalpET; also called TbFPC4-B1BD; MBP-tagged FPC4-B1BD; source: E. coli, purified (Ni-HiTrap, tag removed with TEV, Superdex-200); not shown: MBP, N-terminal, cleaved; His10, N-terminal, cleaved
Turning to B2, in the assay with BILBO1-NTD’ (aa 1–120) [3], the equilibrium dissociation constant (Kd) was roughly 5 µM. Also, the “stoichiometry N” value with BILBO1-NTD’ (aa 1–120) [4] was determined as 1.
